Consider 2 molecules from article PMC10397247.

Common to all, as to assay: two-hybrid library CCNG1;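 also: natural log of median RNA to DNA barcode read ratio; higher means stronger binding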
In one assay the target is T1, 4H591-bH.
T1 chain: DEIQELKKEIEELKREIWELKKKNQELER

The target in the next assay is T2, 4H906-bH.
T2 chain: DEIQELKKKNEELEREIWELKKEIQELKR

Another assay has as its target T3, 4H3298-bH.
T3 chain: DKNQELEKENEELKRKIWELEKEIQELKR

The target in another assay is T4, 4H3926-bH.
T4 chain: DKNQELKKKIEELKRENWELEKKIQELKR

In a further assay the target is T5, 4H575-bA.
T5 chain: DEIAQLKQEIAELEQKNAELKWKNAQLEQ

The target of another assay is T6, 4H3613-bH.
T6 chain: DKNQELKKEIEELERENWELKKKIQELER

The target of another assay is T7, 4H626-bH.
T7 chain: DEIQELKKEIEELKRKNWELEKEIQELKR

A further assay has as its target T8, 4H3462-bH.
T8 chain: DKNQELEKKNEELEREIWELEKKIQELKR

The target of another assay is T9, 4H3497-bH.
T9 chain: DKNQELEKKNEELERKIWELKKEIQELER

The next assay concerns the target T10, 4H3628-bH.
T10 chain: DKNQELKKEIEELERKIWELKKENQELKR

Another assay addresses T11, 4H477-bH.
T11 chain: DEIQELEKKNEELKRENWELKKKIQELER

Another assay deals with T12, 4H741-bH.
T12 chain: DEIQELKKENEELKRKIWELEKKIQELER

The target in a further assay is T13, 4H492-bH.
T13 chain: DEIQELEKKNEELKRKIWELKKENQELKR

In a further assay the target is T14, 4H3277-bH.
T14 chain: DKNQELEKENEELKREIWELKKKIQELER

In another assay the target is T15, 4H348-bH.
T15 chain: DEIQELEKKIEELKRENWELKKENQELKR

For a further assay, the target named is T16, 4H40-bH.
T16 chain: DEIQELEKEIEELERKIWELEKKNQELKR

In the case of DKNQELEKENEELKRKIWELEKEIQELKR [4H3298-bH], the interaction score with 4H591-bH is -1.21; with 4H906-bH it was -0.397; in the assay with 4H3298-bH, 1.66; in the assay with 4H3926-bH, -0.215; with 4H575-bA, -1.29; with 4H3613-bH, -1.68. Further, the interaction score is -0.173 with 4H626-bH, 0.573 with 4H3462-bH, -0.424 with 4H3497-bH and 0.519 with 4H3628-bH.
For the molecule DKNQELEKENEELKREIWELKKKIQELER [4H3277-bH], the interaction score in the assay with 4H591-bH is 0.0179; in the assay with 4H906-bH it was -0.423; in the assay with 4H3298-bH, -0.709; with 4H3926-bH, -0.167; with 4H477-bH, 0.256; with 4H741-bH, -2.8. Further, the interaction score was -0.0624 with 4H3613-bH; -1.06 in the assay with 4H626-bH; -0.305 with 4H492-bH; 0.203 in the assay with 4H3462-bH; 1.3 with 4H3277-bH; -0.711 in the assay with 4H3497-bH. Moreover, the results for the interaction score with 4H348-bH, with 4H40-bH and with 4H3628-bH were 0.219, 0.141 and -1.48, respectively.
